Data from publication doi:10.1101/2022.09.12.507593 (bioRxiv, 2022).

T1: OGT-TPR not fused to SUMO (aa 2-474 of ncOGT, SUMO tag removed) (human, UniProt O15294-1 2-474)
T1 sequence (looked up): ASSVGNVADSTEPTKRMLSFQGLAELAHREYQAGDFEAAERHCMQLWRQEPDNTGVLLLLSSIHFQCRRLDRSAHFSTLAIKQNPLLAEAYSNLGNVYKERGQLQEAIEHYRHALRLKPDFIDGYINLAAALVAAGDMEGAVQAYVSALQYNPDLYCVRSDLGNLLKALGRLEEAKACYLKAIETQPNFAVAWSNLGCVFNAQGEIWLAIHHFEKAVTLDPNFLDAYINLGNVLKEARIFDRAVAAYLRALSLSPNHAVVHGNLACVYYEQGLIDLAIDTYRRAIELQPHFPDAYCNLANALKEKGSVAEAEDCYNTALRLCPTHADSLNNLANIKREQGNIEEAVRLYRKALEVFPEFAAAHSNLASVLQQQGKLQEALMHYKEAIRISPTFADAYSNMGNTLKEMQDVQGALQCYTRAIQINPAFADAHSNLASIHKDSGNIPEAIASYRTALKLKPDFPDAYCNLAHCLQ

B1: WT FUS LCRN (Fused in sarcoma N-terminal low-complexity region, aa 1-214) (domain or fragment, human, UniProt P35637 1-214, looked up)
chain: MASNDYTQQATQSYGAYPTQPGQGYSQQSSQPYGQQSYSGYSQSTDTSGYGQSSYSSYGQSQNTGYGTQSTPQGYGSTGGYGSSQSSQSSYGQQSSYPGYGQQPAPSSTSGSYGSSSQSSSYGQPQSGSYSQQPSYGGQQQSYGQQQSYNPPQGYGQQNQYNSSSGGGGGGGGGGNYGQDQSSMSSGGGSGGGYGNQDQSGGGGSGGYGQQDRG

How the values were obtained:
[1] = target: T1, OGT-TPR not fused to SUMO (aa 2-474 of …); assay: NMR titration
[2] = target: B1; assay: NMR titration

Row | Binder | binding result [1] | average peak intensity ratio (plus OGT-TPR/apo) [2]
1 | B1 | binds | 
2 | SUMO-fused TPR region of OGT (OGT-TPR, aa 2-474 of ncOGT) (domain or fragment, human, UniProt O15294-1 2-474, looked up) ASSVGNVADSTEPTKRMLSFQGLAELAHREYQAGDFEAAERHCMQLWRQEPDNTGVLLLLSSIHFQCRRLDRSAHFSTLAIKQNPLLAEAYSNLGNVYKERGQLQEAIEHYRHALRLKPDFIDGYINLAAALVAAGDMEGAVQAYVSALQYNPDLYCVRSDLGNLLKALGRLEEAKACYLKAIETQPNFAVAWSNLGCVFNAQGEIWLAIHHFEKAVTLDPNFLDAYINLGNVLKEARIFDRAVAAYLRALSLSPNHAVVHGNLACVYYEQGLIDLAIDTYRRAIELQPHFPDAYCNLANALKEKGSVAEAEDCYNTALRLCPTHADSLNNLANIKREQGNIEEAVRLYRKALEVFPEFAAAHSNLASVLQQQGKLQEALMHYKEAIRISPTFADAYSNMGNTLKEMQDVQGALQCYTRAIQINPAFADAHSNLASIHKDSGNIPEAIASYRTALKLKPDFPDAYCNLAHCLQ |  | 0.48
